Source: article PMC10195141 (Acta Biochimica et Biophysica Sinica, 2023)
≈ marks a conversion by molar mass, not a printed value. Values belong to the compound of their own block, whether it stands above or below them.

Key:
M. mulatta Gal-10 = molecular target: T1, M. mulatta Gal-10 (Macaca mulatta, UniProt A0AA82WNZ0); assay: inhibition of hemagglutination of chicken erythrocytes; type: cell-based; conditions: 10 mM Tris-HCl, 150 mM NaCl, pH 7.5, on ice, 60 min; carbohydrate binding site
T1 sequence (A0AA82WNZ0 4-142): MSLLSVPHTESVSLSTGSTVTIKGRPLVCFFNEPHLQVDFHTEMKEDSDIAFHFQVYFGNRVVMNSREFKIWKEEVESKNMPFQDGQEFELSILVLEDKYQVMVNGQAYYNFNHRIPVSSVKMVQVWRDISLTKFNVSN

[1] = molecular target: Macaca fascicularis galectin-10 (Macaca fascicularis); assay: SEC
[2] = molecular target: Macaca mulatta galectin-10 (Macaca mulatta); assay: SEC

MIC (M. mulatta Gal-10): 6.25 mM (≈ 2140 µg/mL)
Compound: OC[C@H]1O[C@@H](O[C@H]2[C@H](O)[C@@H](O)C(O)O[C@@H]2CO)[C@H](O)[C@@H](O)[C@H]1O (stereo partly drawn) [lactose]

stoichiometry N [1]: 2
Compound: Macaca fascicularis galectin-10 (natural protein)

stoichiometry N [2]: 2
Compound: Macaca mulatta galectin-10 (natural protein)
